Assay results from patent US20260184782A1 (TWIST BIOSCIENCE, published 2026).

Target: T1, recombinant human TIGIT (human, UniProt Q495A1 22-141, limits assumed)
T1 construct: recombinant human TIGIT used in Carterra SPR; also called hTIGIT
T1 sequence (looked up): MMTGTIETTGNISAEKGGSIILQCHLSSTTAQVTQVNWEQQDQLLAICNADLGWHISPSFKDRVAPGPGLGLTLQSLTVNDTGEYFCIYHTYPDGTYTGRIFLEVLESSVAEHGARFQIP
Experiment: SPR Carterra, average
Procedure: Binding affinities of VHH-Fc proteins to recombinant human TIGIT were measured by SPR using a Carterra instrument (Table 10A). […] Average values reported from measurements from 1-2 samples.

Row | Binder | Kd [nM] | koff [s⁻¹] | kon [M⁻¹ s⁻¹]
1 | TIGIT-SC13 (Fc fusion, VHH-Fc fusion in assay) VHH: EVQLVESGGGLVQPGGSLRLSCAASGRTFSFMGWFRQAPGKEREWVASVLRGGYTWYADSVKGRFTISADNSKNTAYLQMNSLKPEDTAVYYCATESMDYWGQGTLVTVSS | 3.08 | 0.000199 | 60100
2 | TIGIT-SC84 (Fc fusion, VHH-Fc fusion in assay) VHH: EVQLVESGGGLVQPGGSLRLSCAASGGTFTIYPMGWFRQAPGKEREWVAGINEYGGRYADSVKGRFTISADNSKNTAYLQMNSLKPEDTAVYYCARDLNAMGDAYDIWGQGTLVTVSS | ≤ 3.15 | ≤ 1e-05 | 3180
3 | TIGIT-SC24 (Fc fusion, VHH-Fc fusion in assay) VHH: EVQLVESGGGLVQPGGSLRLSCAASGFTFDRSWMGWFRQAPGKEREVVASITSGGSTYYADSVKGRFTISADNSKNTAYLQMNSLKPEDTAVYYCAADVWYGSTWRNWGQGTLVTVSS | 3.08 | 0.000894 | 506000
4 | TIGIT-SC31 (Fc fusion, VHH-Fc fusion in assay) VHH: EVQLVESGGGLVQPGGSLRLSCAASGRAFESYAMGWFRQAPGKERELVATIGWSGTDYADSVKGRFTISADNSKNTAYLQMNSLKPEDTAVYYCAKGYTSGLSDWGQGTLVTVSS | 4.74 | 0.0062 | 1.31e+06
5 | TIGIT-SC54 (Fc fusion, VHH-Fc fusion in assay) VHH: EVQLVESGGGLVQPGGSLRLSCAASGFSFDDYVMGWFRQAPGKERELVAVIVGEAITRYADSVKGRFTISADNSKNTAYLQMNSLKPEDTAVYYCARRGGSGRAFDIWGQGTLVTVSS | 3.71 | 0.00982 | 3e+06
6 | TIGIT-SC46 (Fc fusion, VHH-Fc fusion in assay) VHH: EVQLVESGGGLVQPGGSLRLSCAASGRTFSNYVMGWFRQAPGKERELVASISSFGSTYYADSVKGRFTISADNSKNTAYLQMNSLKPEDTAVYYCARSGGFLSDWGQGTLVTVSS | 4.45 | 0.00416 | 1.01e+06
7 | TIGIT-SC169 (Fc fusion, VHH-Fc fusion in assay) VHH: EVQLVESGGGLVQPGGSLRLSCAASGFTLNDYAMGWFRQAPGKERELVAWIARYDGSTLYADSVKGRFTISADNSKNTAYLQMNSLKPEDTAVYYCTTELRWELQQPDYWGQGTLVTVSS | 978 | 0.206 | 211000
8 | TIGIT-SC121 (Fc fusion, VHH-Fc fusion in assay) VHH: EVQLVESGGGLVQPGGSLRLSCAASGFTFSPSWMGWFRQAPGKEREWVASVLRGGYTWYADSVKGRFTISADNSKNTAYLQMNSLKPEDTAVYYCTTEGFDPWGQGTLVTVSS | 4.68 | 0.00112 | 344000
9 | TIGIT-SC111 (Fc fusion, VHH-Fc fusion in assay) VHH: EVQLVESGGGLVQPGGSLRLSCAASGDTFSGGFMGWFRQAPGKEREWVASVLRGGYTWYADSVKGRFTISADNSKNTAYLQMNSLKPEDTAVYYCTRGGMDVWGQGTLVTVSS | 4.37 | 0.00743 | 1.7e+06
10 | TIGIT-SC187 (Fc fusion, VHH-Fc fusion in assay) VHH: EVQLVESGGGLVQPGGSLRLSCAASGFTFSPSWMGWFRQAPGKEREWVASVLRGGYTWYADSVKGRFTISADNSKNTAYLQMNSLKPEDTAVYYCTTDSLPGWGQGTLVTVSS | 17.2 | 0.000586 | 34000
11 | TIGIT-SC98 (Fc fusion, VHH-Fc fusion in assay) VHH: EVQLVESGGGLVQPGGSLRLSCAASGNTFSGGFMGWFRQAPGKEREWVASVLRGGYTWYADSVKGRFTISADNSKNTAYLQMNSLKPEDTAVYYCTTEGFDPWGQGTLVTVSS | 5.79 | 0.00137 | 237000
12 | TIGIT-SC60 (Fc fusion, VHH-Fc fusion in assay) VHH: EVQLVESGGGLVQPGGSLRLSCAASGFTFSPSWMGWFRQAPGKEREWVASVLRGGYTWYADSVKGRFTISADNSKNTAYLQMNSLKPEDTAVYYCARDDLDYWGQGTLVTVSS | 84.6 | 0.00184 | 21800
13 | TIGIT-SC188 (Fc fusion, VHH-Fc fusion in assay) VHH: EVQLVESGGGLVQPGGSLRLSCAASGNTFSGGFMGWFRQAPGKEREWVASVLRGGYTWYADSVKGRFTISADNSKNTAYLQMNSLKPEDTAVYYCTTDSLPGWGQGTLVTVSS | 77.1 | 0.00309 | 42500
14 | TIGIT-SC51 (Fc fusion, VHH-Fc fusion in assay) VHH: EVQLVESGGGLVQPGGSLRLSCAASGRTEANYAMGWFRQAPGKEREFVAAISWDGGATAYADSVKGRFTISADNSKNTAYLQMNSLKPEDTAVYYCGDYEGHWGQGTLVTVSS | 5.15 | 0.00981 | 2.1e+06
15 | TIGIT-SC68 (Fc fusion, VHH-Fc fusion in assay) VHH: EVQLVESGGGLVQPGGSLRLSCAASGHTFRGYAMGWFRQAPGKEREAVAAISWSGDNTYYADSVKGRFTISADNSKNTAYLQMNSLKPEDTAVYYCGDYEGHWGQGTLVTVSS | 5.49 | 0.0103 | 1.87e+06
16 | TIGIT-SC25 (Fc fusion, VHH-Fc fusion in assay) VHH: EVQLVESGGGLVQPGGSLRLSCAASGNTFSGGFMGWFRQAPGKEREWVASVLRGGYTWYADSVKGRFTISADNSKNTAYLQMNSLKPEDTAVYYCTTVGYGDYWGQGTLVTVSS | 22.5 | 0.00174 | 77200
17 | TIGIT-SC201 (Fc fusion, VHH-Fc fusion in assay) VHH: EVQLVESGGGLVQPGGSLRLSCAASGFTFSPSWMGWFRQAPGKEREWVASVLRGGYTWYADSVKGRFTISADNSKNTAYLQMNSLKPEDTAVYYCTRDGGFDPWGQGTLVTVSS | 1590 | 0.000901 | 567
18 | TIGIT-SC191 (Fc fusion, VHH-Fc fusion in assay) VHH: EVQLVESGGGLVQPGGSLRLSCAASGFVFSSDWMGWFRQAPGKEREWVASVLRGGYTWYADSVKGRFTISADNSKNTAYLQMNSLKPEDTAVYYCARGDSMDVWGQGTLVTVSS | 401 | 0.125 | 313000
19 | TIGIT-SC42 (Fc fusion, VHH-Fc fusion in assay) VHH: EVQLVESGGGLVQPGGSLRLSCAASGNTFSGGFMGWFRQAPGKEREWVATVLRGGYTWYADSVKGRFTISADNSKNTAYLQMNSLKPEDTAVYYCASGGFLASWGQGTLVTVSS | 1400 | 0.197 | 141000
20 | TIGIT-SC195 (Fc fusion) VHH: EVQLVESGGGLVQPGGSLRLSCAASGFAFSSDWMGWFRQAPGKEREWVASVLRGGYTWYADSVKGRFTISADNSKNTAYLQMNSLKPEDTAVYYCARGEGFDYWGQGTLVTVSS | 478 | 0.142 | 296000
21 | TIGIT-SC198 (Fc fusion, VHH-Fc fusion in assay) VHH: EVQLVESGGGLVQPGGSLRLSCAASGFTFSPSWMGWFRQAPGKEREYVASVLRGGYTWYADSVKGRFTISADNSKNTAYLQMNSLKPEDTAVYYCASEGDPDYWGQGTLVTVSS | 27.6 | 0.00285 | 103000
22 | TIGIT-SC200 (Fc fusion, VHH-Fc fusion in assay) VHH: EVQLVESGGGLVQPGGSLRLSCAASGNTFSGGFMGWFRQAPGKEREWVASVLRGGYTWYADSVKGRFTISADNSKNTAYLQMNSLKPEDTAVYYCTRDGGFDPWGQGTLVTVSS | 5.34 | 0.00143 | 290000
23 | TIGIT-SC171 (Fc fusion, VHH-Fc fusion in assay) VHH: EVQLVESGGGLVQPGGSLRLSCAASGFTFDRSWMGWFRQAPGKEREWVASVLRGGYTWYADSVKGRFTISADNSKNTAYLQMNSLKPEDTAVYYCATERRLGVWGQGTLVTVSS | 51 | 0.00441 | 90200
24 | TIGIT-SC203 (Fc fusion, VHH-Fc fusion in assay) VHH: EVQLVESGGGLVQPGGSLRLSCAASGFTFSPSWMGWFRQAPGKEREWVASVLRGGYTWYADSVKGRFTISADNSKNTAYLQMNSLKPEDTAVYYCARDRGGSDWGQGTLVTVSS | 914 | 0.14 | 153000
25 | TIGIT-SC117 (Fc fusion, VHH-Fc fusion in assay) VHH: EVQLVESGGGLVQPGGSLRLSCAASGNTFSGGFMGWFRQAPGKEREWVASVLRGGYTWYADSVKGRFTISADNSKNTAYLQMNSLKPEDTAVYYCDAADYWGQGTLVTVSS | 9.63 | 0.0012 | 125000
26 | TIGIT-SC115 (Fc fusion, VHH-Fc fusion in assay) VHH: EVQLVESGGGLVQPGGSLRLSCAASGNTFSGGFMGWFRQAPGKEREWVASVLRGGYTWYADSVKGRFTISADNSKNTAYLQMNSLKPEDTAVYYCAGTGLWGQGTLVTVSS | 8.42 | 0.00241 | 262000
27 | TIGIT-SC116 (Fc fusion, VHH-Fc fusion in assay) VHH: EVQLVESGGGLVQPGGSLRLSCAASGFTFSPSWMGWFRQAPGKEREWVASVLRGGYTWYADSVKGRFTISADNSKNTAYLQMNSLKPEDTAVYYCDAADYWGQGTLVTVSS | 4.08 | 0.000696 | 209000
28 | TIGIT-SC57 (Fc fusion, VHH-Fc fusion in assay) VHH: EVQLVESGGGLVQPGGSLRLSCAASGNTFSGGFMGWFRQAPGKEREWVASVLRGGYTWYADSVKGRFTISADNSKNTAYLQMNSLKPEDTAVYYCTTYRGWGQGTLVTVSS | 25.2 | 0.00511 | 149000
29 | TIGIT-SC20 (Fc fusion, VHH-Fc fusion in assay) VHH: EVQLVESGGGLVQPGGSLRLSCAASGNTFSGGFMGWFRQAPGKEREWVASVLRGGYTWYADSVKGRFTISADNSKNTAYLQMNSLKPEDTAVYYCATPRGYWGQGTLVTVSS | 2.7 | 0.0007 | 260000
